Experimental data reported in patent CN115710315A (DONGGUAN PENGZHI BIOTECHNOLOGY CO LTD, dated 2023).

B1: Anti-CA15-3 3F10 (antibody, V domains shown)
VH: EVQLVESGGGLVKPGGSLKLSCAASGFAFSNYPMSWVRQTPEMRLEWVAYISSGGDSTYYPGTVKGRFTISRDNAKSALYLQMSSLKSEDTAMYYCTFWFRGFDYWGQGTTLTVSS
VL: DVLMTQIPLSLPVSLGDQASLSCRSSQSIVHSNGNTYLEWYLQKPGQSPKLLIYKVSNRFSGVPDRFSGSGSGTDFTLKISRVEAEDLGVYYCFQGSHVPYTFGGGTKLEIK

Molecular target: T1, CA15-3抗原 (UniProt P15941 24-1097, limits assumed)
T1 construct: The origin of the antigen preparation used in the assays is not described; also called CA15-3(MUC1); CA15-3蛋白
Assay: BLI, AMC sensor, antibody immobilised at 10 ug/ml, CA15-3 antigen in serial dilution

T1 sequence (P15941 24-1097 limits assumed): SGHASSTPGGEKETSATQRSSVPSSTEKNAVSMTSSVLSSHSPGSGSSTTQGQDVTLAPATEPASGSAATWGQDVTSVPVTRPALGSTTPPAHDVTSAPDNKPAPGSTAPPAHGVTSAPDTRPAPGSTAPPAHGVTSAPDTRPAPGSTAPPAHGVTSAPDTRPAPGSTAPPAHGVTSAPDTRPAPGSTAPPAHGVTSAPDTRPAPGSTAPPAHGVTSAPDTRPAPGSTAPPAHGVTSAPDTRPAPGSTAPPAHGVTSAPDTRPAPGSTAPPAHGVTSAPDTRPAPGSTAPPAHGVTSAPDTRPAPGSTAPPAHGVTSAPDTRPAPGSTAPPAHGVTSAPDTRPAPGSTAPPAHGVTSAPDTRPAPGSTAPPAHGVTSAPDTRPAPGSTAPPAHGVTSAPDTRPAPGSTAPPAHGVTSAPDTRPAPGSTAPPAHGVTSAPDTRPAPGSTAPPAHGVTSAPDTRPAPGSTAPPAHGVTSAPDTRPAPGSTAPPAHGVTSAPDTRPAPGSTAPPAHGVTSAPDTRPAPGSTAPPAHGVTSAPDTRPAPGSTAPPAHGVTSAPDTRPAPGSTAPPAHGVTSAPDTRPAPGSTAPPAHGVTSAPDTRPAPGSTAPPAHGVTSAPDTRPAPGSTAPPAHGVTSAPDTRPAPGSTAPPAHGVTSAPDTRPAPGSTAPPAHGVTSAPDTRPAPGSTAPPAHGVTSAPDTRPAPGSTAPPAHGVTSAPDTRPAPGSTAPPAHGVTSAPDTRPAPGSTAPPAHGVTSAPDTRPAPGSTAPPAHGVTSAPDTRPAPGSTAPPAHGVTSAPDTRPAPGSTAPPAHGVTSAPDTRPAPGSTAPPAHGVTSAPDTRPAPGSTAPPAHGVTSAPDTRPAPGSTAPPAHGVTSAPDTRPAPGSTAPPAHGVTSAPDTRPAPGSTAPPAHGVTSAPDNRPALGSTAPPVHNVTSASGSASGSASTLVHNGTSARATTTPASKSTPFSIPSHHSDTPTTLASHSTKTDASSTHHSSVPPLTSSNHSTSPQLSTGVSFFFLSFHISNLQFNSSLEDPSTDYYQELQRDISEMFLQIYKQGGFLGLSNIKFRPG

| Molecule | Kd [nM] | koff [s⁻¹] | kon [M⁻¹ s⁻¹] |
| --- | --- | --- | --- |
| 对照 (antibody) | 84.5 | 0.00375 | 44400 |
| B1 | 5.17 | 0.000161 | 31100 |
